According to the supplement of paper PMC9876800:

System: peptide library, one residue held at a place counted from the S/T acceptor
Assay: relative phosphorylation of the sub-library (ratio to the mean residue at this position); higher = residue favoured
Conditions: human
In short: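 In 384-well plates, purified recombinant kinases (human or orthologue constructs) were incubated for 90 min under kinase-specific conditions with 50 μM biotinylated degenerate peptide sub-libraries and 50 μM ATP spiked with γ-32P-ATP. Each sub-library fixed a single residue at one position around a central Ser/Thr. Relative sub-library phosphorylation, measured by phosphorimaging and densitometry of streptavidin membrane spots, is given as a ratio to the mean residue at that position.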

PRKCQ, construct: Full length, sequence (Q04759 whole entry, looked up): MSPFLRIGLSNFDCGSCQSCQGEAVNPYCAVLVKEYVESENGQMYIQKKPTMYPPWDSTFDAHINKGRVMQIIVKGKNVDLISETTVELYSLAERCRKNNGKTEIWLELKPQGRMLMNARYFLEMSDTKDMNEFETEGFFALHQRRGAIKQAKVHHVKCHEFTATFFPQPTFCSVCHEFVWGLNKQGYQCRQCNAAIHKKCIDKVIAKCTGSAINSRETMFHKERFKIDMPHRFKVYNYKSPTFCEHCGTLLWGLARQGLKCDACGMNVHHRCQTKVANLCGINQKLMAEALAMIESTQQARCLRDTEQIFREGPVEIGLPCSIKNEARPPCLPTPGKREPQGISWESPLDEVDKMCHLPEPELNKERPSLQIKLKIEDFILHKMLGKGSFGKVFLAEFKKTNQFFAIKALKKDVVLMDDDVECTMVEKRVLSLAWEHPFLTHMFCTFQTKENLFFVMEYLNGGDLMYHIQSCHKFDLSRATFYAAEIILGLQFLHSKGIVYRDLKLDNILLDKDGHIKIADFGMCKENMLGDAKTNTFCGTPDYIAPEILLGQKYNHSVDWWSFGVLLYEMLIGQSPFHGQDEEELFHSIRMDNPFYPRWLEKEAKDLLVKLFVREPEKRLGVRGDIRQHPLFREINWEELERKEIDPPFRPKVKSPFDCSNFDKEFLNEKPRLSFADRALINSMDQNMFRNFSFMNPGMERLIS
PLK3, construct: Full length, sequence (Q9H4B4 whole entry, looked up): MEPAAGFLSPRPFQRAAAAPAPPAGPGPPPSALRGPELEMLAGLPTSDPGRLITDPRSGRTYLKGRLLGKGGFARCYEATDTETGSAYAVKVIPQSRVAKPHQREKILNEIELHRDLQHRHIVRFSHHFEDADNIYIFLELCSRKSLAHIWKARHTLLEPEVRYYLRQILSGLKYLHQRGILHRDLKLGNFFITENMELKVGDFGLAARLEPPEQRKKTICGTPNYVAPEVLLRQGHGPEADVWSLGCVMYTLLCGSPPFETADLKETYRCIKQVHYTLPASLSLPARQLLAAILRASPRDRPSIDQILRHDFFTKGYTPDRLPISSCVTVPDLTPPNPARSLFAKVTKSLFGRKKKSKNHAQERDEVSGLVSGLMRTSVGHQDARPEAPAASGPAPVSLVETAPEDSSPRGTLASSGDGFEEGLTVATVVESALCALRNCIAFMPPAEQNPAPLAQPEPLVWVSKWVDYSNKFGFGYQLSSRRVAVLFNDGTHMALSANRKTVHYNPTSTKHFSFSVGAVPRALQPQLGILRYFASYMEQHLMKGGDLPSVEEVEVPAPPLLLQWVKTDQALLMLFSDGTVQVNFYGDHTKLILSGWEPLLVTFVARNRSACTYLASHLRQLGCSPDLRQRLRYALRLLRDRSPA

PIM3, construct: Full length (from UniProt Q86V86)
relative phosphorylation
Conditions	at +1	at +2	at +3	at +4	at -1	at -2	at -3	at -4	at -5
A fixed	1.07	0.944	0.735	0.954	0.952	0.672	0.676	0.984	1.16
D fixed	0.918	0.986	1.47	1.17	0.769	0.637	0.718	1.07	0.989
E fixed	1.44	0.858	1.26	1.11	0.996	0.621	0.674	1.14	0.697
F fixed	0.469	0.684	0.673	0.752	0.608	0.761	0.393	0.62	0.693
G fixed	3.27	0.888	1.21	1.37	0.819	0.746	0.848	1.45	1.25
H fixed	0.811	1.84	1.2	1.03	1.02	2.91	0.985	1.1	1.32
I fixed	0.715	0.499	0.602	0.728	0.454	0.427	0.249	0.628	0.533
K fixed	0.959	1.23	1.24	1.09	1.78	1.14	1.64	1.24	1.72
L fixed	0.571	0.624	0.587	0.823	0.693	0.473	0.309	0.567	0.52
M fixed	0.84	0.648	0.733	0.827	0.713	0.566	0.403	0.992	0.539
N fixed	1.21	1.57	1.24	1.16	1.46	1.23	0.74	0.975	0.869
P fixed	0.416	1.11	0.828	1.47	2.12	1.1	1.33	1.42	1
Q fixed	1.33	1.16	1.19	1.14	1.46	1.07	0.856	1.08	0.926
R fixed	0.955	1.44	1.53	0.79	1	2.1	5.83	1.57	2.42
V fixed	0.828	0.7	0.69	0.859	0.697	0.456	0.372	0.657	0.714
W fixed	0.553	0.981	0.931	0.934	0.529	0.905	0.575	0.775	0.961
Y fixed	0.634	0.824	0.87	0.795	0.926	1.19	0.409	0.744	0.688
pThr fixed	1.27	1.04	1.04	1.68	0.585	0.694	0.78	0.779	0.67
pTyr fixed	0.783	0.886	1.11	1.02	1.21	0.975	0.904	1.03	1.03

PLK3, construct: Full length (from UniProt Q9H4B4)
relative phosphorylation
Conditions	at +1	at +2	at +3	at +4	at -1	at -2	at -3	at -4	at -5
A fixed	0.585	0.878	0.681	0.695	0.828	0.711	0.85	0.948	1.07
D fixed	0.463	1.91	1.91	1.6	1.79	3.16	1.45	1.38	1.13
E fixed	0.565	1.84	2.75	1.82	1.45	1.99	3.4	1.38	1.09
F fixed	3.8	1.14	0.839	1.09	0.798	0.831	1.1	0.963	1.08
G fixed	0.491	0.475	0.766	0.819	0.519	0.688	0.865	1.05	1.16
H fixed	0.771	1.02	1.06	0.913	1.1	0.865	1.11	0.945	1.09
I fixed	0.989	1.01	0.724	0.928	0.886	0.364	0.515	0.905	0.795
K fixed	0.517	0.343	0.519	0.61	0.76	0.418	0.535	0.932	1.2
L fixed	1.06	0.92	0.831	1.21	0.966	0.654	1.08	1.1	0.85
M fixed	1.75	1.13	0.767	1.09	1.02	0.773	1.11	0.878	0.848
N fixed	0.526	0.973	1.16	0.935	1.3	2.15	0.842	1.02	1.11
P fixed	0.196	0.444	0.598	1.03	0.965	0.517	0.585	0.844	1.04
Q fixed	0.93	0.714	0.876	0.881	0.929	1.06	0.778	0.831	0.757
R fixed	0.87	0.56	0.642	0.706	1.06	0.592	0.597	0.906	1.13
V fixed	0.814	0.806	0.706	0.656	0.928	0.437	0.476	0.834	0.769
W fixed	1.04	1.51	1.1	1.12	0.566	0.654	0.934	1.19	0.964
Y fixed	1.62	1.34	1.07	0.888	1.12	1.13	0.768	0.89	0.931
pThr fixed	1.18	1.97	1.44	2.41	0.624	0.625	0.835	1.08	0.914
pTyr fixed	1.06	6.48	2.1	2.03	3.06	0.735	1.01	1.17	1.11

PRKCB, construct: Full length (from UniProt P05771)
relative phosphorylation
Conditions	at +1	at +2	at +3	at +4	at -1	at -2	at -3	at -4	at -5
A fixed	0.614	0.584	0.815	1.08	1.16	1.17	0.836	1.3	1.35
D fixed	0.203	0.219	0.509	0.604	0.516	0.531	0.379	0.694	0.677
E fixed	0.288	0.177	0.503	0.546	0.489	0.468	0.438	0.654	0.676
F fixed	0.881	0.35	0.602	0.636	0.435	0.597	0.639	0.72	0.947
G fixed	0.585	0.365	1.09	1.22	1.65	1.37	0.95	1.57	1.45
H fixed	0.861	1.39	1.36	1.37	1.24	1.23	1.47	1.17	1.26
I fixed	1.05	0.413	0.529	0.559	0.214	0.323	0.214	0.393	0.452
K fixed	2.49	3.97	2.36	2.46	2.15	1.93	1.91	1.64	1.67
L fixed	0.864	0.469	0.796	0.644	0.563	0.448	0.371	0.517	0.71
M fixed	1.61	0.604	0.68	0.705	0.779	0.662	0.606	0.898	0.684
N fixed	0.691	0.909	1.09	1.13	1.34	1.52	1.07	1.11	1.04
P fixed	0.289	0.305	0.606	1.27	1.09	0.87	0.983	1.2	1.22
Q fixed	1.45	0.727	1.1	1.2	1.04	1.47	1.08	1.24	1
R fixed	2.18	4.58	2.22	1.46	2.25	2.3	4.21	1.78	1.44
V fixed	1.11	0.443	0.627	0.683	0.496	0.462	0.354	0.504	0.695
W fixed	0.813	0.627	1.03	0.83	0.556	0.933	0.68	0.933	1.19
Y fixed	1.03	0.86	1.07	0.618	1.04	0.717	0.805	0.679	0.531
pThr fixed	0.842	0.433	0.621	0.672	0.372	0.756	0.666	0.932	0.844
pTyr fixed	0.519	0.272	0.651	0.434	0.732	0.712	0.693	0.806	0.983

PRKCQ, construct: Full length (from UniProt Q04759)
relative phosphorylation
Conditions	at +1	at +2	at +3	at +4	at -1	at -2	at -3	at -4	at -5
A fixed	0.568	0.491	0.841	0.988	1.06	0.884	0.837	1.17	1.13
D fixed	0.139	0.187	0.373	0.434	0.378	0.333	0.326	0.642	0.786
E fixed	0.184	0.14	0.362	0.385	0.315	0.305	0.344	0.725	0.58
F fixed	1.93	0.626	0.883	0.614	0.853	0.689	0.694	0.748	0.981
G fixed	0.411	0.376	0.887	1.1	1.6	1.22	0.871	1.41	1.21
H fixed	0.815	1.45	1.33	1.6	1.08	1.15	1.33	1.2	1.14
I fixed	1.46	0.612	0.762	0.629	0.309	0.348	0.329	0.522	0.769
K fixed	1.63	3.19	1.91	2.4	1.89	1.89	1.72	1.51	1.58
L fixed	1.16	0.553	0.969	0.652	0.64	0.472	0.462	0.553	0.857
M fixed	1.68	0.819	0.85	0.721	0.861	0.612	0.583	0.784	0.682
N fixed	0.441	0.873	0.782	1.01	1.21	1.11	0.915	1.05	0.899
P fixed	0.185	0.274	0.557	1.23	0.941	0.462	0.706	1.1	1.02
Q fixed	0.952	0.748	0.929	0.944	1.09	1.22	0.982	0.996	0.862
R fixed	1.83	3.66	2.14	1.88	2.29	4.01	4.83	1.95	1.88
V fixed	1.35	0.598	0.776	0.688	0.539	0.47	0.435	0.669	0.775
W fixed	1.07	0.859	1.31	0.884	0.728	1.01	0.814	1.22	1.12
Y fixed	1.21	1.54	1.33	0.827	1.2	0.822	0.816	0.757	0.734
pThr fixed	0.427	0.275	0.349	0.36	0.266	0.481	0.571	0.689	0.572
pTyr fixed	0.351	0.255	0.379	0.263	0.543	0.497	0.566	0.574	0.645
